How the values were obtained:
[1] = biological target: Human ICOS (human) (UniProt Q9Y6W8); experiment: in vivo target engagement, flow cytometry on human peripheral blood CD4+ T cells, 0.1 mg/kg, Day 42
[2] = biological target: Human ICOS (human) (UniProt Q9Y6W8); experiment: in vivo target engagement, flow cytometry on human peripheral blood CD4+ T cells, 0.1 mg/kg, Day 42, average of three subjects
[3] = biological target: Human ICOS (human) (UniProt Q9Y6W8); experiment: in vivo target engagement, flow cytometry on human peripheral blood CD4+ T cells, average of three subjects after first i.v. dose of 0.1 mg/kg

Chain of Human ICOS (human) (Q9Y6W8 21-199): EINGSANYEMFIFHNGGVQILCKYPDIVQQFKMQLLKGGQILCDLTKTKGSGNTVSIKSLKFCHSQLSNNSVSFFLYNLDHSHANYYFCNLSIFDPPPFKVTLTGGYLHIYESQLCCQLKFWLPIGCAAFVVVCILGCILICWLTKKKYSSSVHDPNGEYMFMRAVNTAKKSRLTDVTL

## JTX-2011 (antibody)
[1]
  target engagement: < 40%
[2]
  target engagement: 10%
[3]
  target engagement: 100%
